Reference: the supplement of paper PMC9732359
± gives the uncertainty stated by the source.

Test: protein stability index of a GFP-peptide fusion (yeast GPS) (PSI 1-4); higher = more stable; sorted into four equal gates, so the index is relative within each strain
Summary of the method: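 The protein stability index of a peptide was calculated by multiplying its read frequency in each gate by that gate's number and adding the products. The peptides were tiled 17-residue stretches of yeast proteins, fused downstream of GFP on a Cherry-expressing plasmid and carried in yeast as a pooled library. Mid-log cultures in leucine-free medium were sorted into four equal gates by GFP/Cherry ratio, and each gate's plasmids were PCR-amplified and Illumina-sequenced.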

Row | Sequence | protein stability index (doa10∆) | protein stability index (pdr5∆) | protein stability index (san1∆) | protein stability index (ubr1∆)
1 | EFLFESLKNDLPQFRSS [ECM29] | 2.93 ± 0.087 | 3.1 ± 0.092 | 3.28 ± 0.082 | 3 ± 0.11
2 | DYKTAFSYFFESFESYH [RPN6] | 2.37 ± 0.058 | 2.77 ± 0.065 | 2.59 ± 0.067 | 2.55 ± 0.033
3 | IAPRRKRLADGLSVTQK [DIS3] | 3.38 ± 0.088 | 3.3 ± 0.074 | 3.16 ± 0.068 | 3.1 ± 0.061
4 | NQINSFWSLHSSTYYNL [NUT1] | 2.34 ± 0.064 | 1.75 ± 0.049 | 1.72 ± 0.073 | 1.57 ± 0.036
5 | CFSINDDPVPTPPAIEH [SSN2] | 2.42 ± 0.25 | 2.1 ± 0.26 | – | –
6 | VRSFSKALDELKPEIEK [LRP1] | 3.39 ± 0.088 | 3.39 ± 0.074 | 3.31 ± 0.052 | 3.22 ± 0.064
7 | EGAEPGPPYTTDEHLIF [ISW2] | 2.91 ± 0.043 | 2.99 ± 0.047 | 2.42 ± 0.043 | 2.68 ± 0.037
8 | SPEESKARSPGIAKPNA [SIR4] | 3.48 ± 0.075 | 3.42 ± 0.09 | 3.09 ± 0.091 | 3.38 ± 0.066
9 | KLYDAKRYTSEGTRNRF [YMR129W/POM152] | 3.02 ± 0.098 | 3.15 ± 0.087 | 3.23 ± 0.058 | 3.02 ± 0.055
10 | TRIQYVDFACCTNLTNR [GRR1] | 2.82 ± 0.057 | 2.6 ± 0.069 | 2.58 ± 0.1 | 2.36 ± 0.049
11 | RVKIANTSAATVHTATS [SSN2] | 2.86 ± 0.1 | 2.65 ± 0.051 | 2.39 ± 0.071 | 2.52 ± 0.094
12 | KTLTEEVTKSSHVENLE [YIL149C/MLP2] | 2.81 ± 0.053 | 2.94 ± 0.053 | 2.86 ± 0.051 | 3.13 ± 0.035
13 | LGKVRFANYKLLLKKII [SRB4] | 1.71 ± 0.063 | 1.62 ± 0.05 | 1.43 ± 0.14 | 1.53 ± 0.044
14 | VFMLDTKRLGTPESVKP [RGR1] | 2.55 ± 0.075 | 2.64 ± 0.091 | 2.54 ± 0.11 | 2.8 ± 0.086
15 | PIPSSETKADGILLETI [RRP6] | 2.86 ± 0.1 | 2.36 ± 0.065 | 2.12 ± 0.1 | 2.53 ± 0.052
16 | KDEEIEKLLQQDREITN [MED8] | 3.26 ± 0.13 | 3.12 ± 0.13 | 3.06 ± 0.24 | 3.59 ± 0.14
17 | FNVVDVGVDQLSIELEG [YJL039C/NUP192] | 3.49 ± 0.076 | 3.34 ± 0.058 | 3.29 ± 0.038 | 3.37 ± 0.049
18 | TYDENDDFFKELAKEAK [ESC2] | 3.01 ± 0.11 | 2.83 ± 0.08 | 2.65 ± 0.073 | 3.08 ± 0.075
19 | ARGTIEIVSDVKVVDAG [RPP0] | 1.61 ± 0.1 | 2.21 ± 0.07 | 1.96 ± 0.15 | 1.77 ± 0.095
20 | EISLKAHCILGIGGDHA [RPC40] | 1.16 ± 0.18 | 1.3 ± 0.16 | 1.28 ± 0.3 | –
21 | PSIVFIDEIDAIGTKRY [RPT2] | – | 2.28 ± 0.14 | 2.14 ± 0.17 | 2.92 ± 0.19
22 | CISLGSTKLSRPFDSFG [ITC1] | 3.06 ± 0.067 | 2.93 ± 0.061 | 3.03 ± 0.048 | 3.01 ± 0.08
23 | WNVEKFKKDFEVNISSL [RPC40] | 2.03 ± 0.11 | 2.98 ± 0.12 | 2.6 ± 0.084 | 2.59 ± 0.082
24 | VLLVEKYGAEYDLVDNK [NAS6] | 1.9 ± 0.22 | – | 3 ± 0.22 | 3 ± 0.19
25 | AGALNLASPEVKVHMDS [DIS3] | 3.06 ± 0.083 | 3.4 ± 0.069 | 2.99 ± 0.07 | 3.04 ± 0.052
26 | VPIERVAQLKPFFKYID [RPC37] | 2.54 ± 0.062 | 2.24 ± 0.054 | 2.34 ± 0.054 | 2.71 ± 0.052

Row | Sequence | protein stability index (doa10∆) | protein stability index (pdr5∆) | protein stability index (san1∆) | protein stability index (ubr1∆)
27 | LDALTRHIKSKHEDLSL [RPN4] | 2.54 ± 0.062 | 2.08 ± 0.068 | 1.57 ± 0.089 | 2.61 ± 0.059
28 | ARKELPIFDYIHIDALE [SIR3] | 2.3 ± 0.053 | 2.34 ± 0.056 | 2.21 ± 0.059 | 2.5 ± 0.047
29 | LFHSCTRIQYVDFACCT [GRR1] | 2.56 ± 0.12 | 2.44 ± 0.067 | 2.2 ± 0.075 | 2.21 ± 0.063
30 | VSVLLISKDCSAFACKT [BRR2] | 1.96 ± 0.052 | 2.27 ± 0.042 | 2.21 ± 0.064 | 2.17 ± 0.049
31 | KIAVLNNDKREIQEELE [SMC1] | 3.23 ± 0.067 | 3.37 ± 0.056 | 3.32 ± 0.039 | 3.25 ± 0.047
32 | INGINWRFHTPQKYVLH [SIN4] | 2 ± 0.057 | 1.92 ± 0.052 | 1.83 ± 0.097 | 1.97 ± 0.042
33 | EFRSAAGQLALDLANSG [YDL116W/NUP84] | 2.79 ± 0.14 | – | 2.82 ± 0.14 | 3 ± 0.12
34 | LVAKLKKVKSASKKSGG [SMC4] | 2.4 ± 0.074 | 2.62 ± 0.085 | 2.13 ± 0.12 | 2.45 ± 0.052
35 | DKHLYHVLYKESKGNAF [RPL19A] | 3.56 ± 0.16 | 3.39 ± 0.089 | 2.96 ± 0.11 | 2.77 ± 0.084
36 | ATALQTCAGGRLFNVVV [SMC2] | 2.63 ± 0.12 | 2.9 ± 0.13 | 3.13 ± 0.15 | 2.12 ± 0.15
37 | FTGEKPIITGSTSTSSS [MED8] | 2.71 ± 0.062 | 2.7 ± 0.054 | 2.78 ± 0.052 | 2.13 ± 0.043
38 | YYNPQAGTKITICIELK [RGR1] | 2.16 ± 0.13 | 2.24 ± 0.23 | 2.1 ± 0.13 | 2.48 ± 0.1
39 | LRLGRGINPNTFRIFHN [YDL088C/ASM4] | 2.39 ± 0.062 | 1.88 ± 0.071 | 1.86 ± 0.11 | 1.65 ± 0.038
40 | RSIMKNRSVVYFKLDLT [RRI2] | – | 1.58 ± 0.22 | – | –
41 | SGITDPYEMYKYVHVSE [FAS2] | 2.33 ± 0.072 | 2.63 ± 0.074 | 2.48 ± 0.07 | 2.4 ± 0.069
42 | TATGIKVFSLDPQYLVD [ASC1] | 2.52 ± 0.049 | 2.67 ± 0.044 | 2.89 ± 0.039 | 2.58 ± 0.032
43 | KDQIQAGKWFDPVLDWR [SIR4] | 3.56 ± 0.14 | 3.49 ± 0.094 | 2.95 ± 0.19 | 3.22 ± 0.07
44 | QSQPQEKFSEKMLKIWT [ECM29] | 3.57 ± 0.26 | 3.08 ± 0.15 | 2.9 ± 0.21 | 3.03 ± 0.2
45 | ASSPIILEEGSSGMGAF [RPN10] | 3.04 ± 0.079 | 3.04 ± 0.083 | 2.99 ± 0.089 | 3.14 ± 0.059
46 | QTRKEYNTSILEFRWLT [SIN4] | 1.74 ± 0.073 | 1.74 ± 0.059 | 1.83 ± 0.093 | 2.42 ± 0.098
47 | LPTTVVSNPGDNPPPAD [MED2] | 3.02 ± 0.046 | 2.95 ± 0.052 | 3.04 ± 0.051 | 3.11 ± 0.037
48 | RTMDDIKDSVREVGTKF [ECM29] | 3.35 ± 0.11 | 3.47 ± 0.11 | 3.27 ± 0.088 | 3.29 ± 0.072
49 | GVLLPTRIKLLLTKNVS [RPS6A] | 1.43 ± 0.11 | 1.49 ± 0.11 | – | 2.03 ± 0.11
50 | KIGPLGLSPKKVGEDIA [RPL12A] | 3.3 ± 0.16 | 3.2 ± 0.18 | 3.27 ± 0.2 | 3.38 ± 0.24
51 | SLGFNEVFSRPEWMILT [RPO21] | 1.5 ± 0.11 | 1.74 ± 0.1 | 1.62 ± 0.12 | 1.21 ± 0.066
